Results from patent publication US20020055130A1, “Method and product for regulating apoptosis” (National Jewish Center for Immunology and Respiratory …, priority 1997, published 2002).

B1: DTVD→A: MEKK1 mutant with DTVD (amino acids 871-874) substituted with alanines (protein, UniProt P53349 2-1493, looked up, variant D871A T872A V873A D874A)
Mitogen-activated protein …: AAAAGDRASSSGFPGAAAASPEAGGGGGGGGALQGSGAPAAGAAGLLREPGSAGRERADWRRRQLRKVRSVELDQLPEQPLFLAAASPPCPSTSPSPEPADAAAGASRFQPAAGPPPPGAASRCGSHSAELAAARDSGARSPAGAEPPSAAAPSGREMENKETLKGLHKMEDRPEERMIREKLKATCMPAWKHEWLERRNRRGPVVVKPIPIKGDGSEVNNLAAEPQGEGQAGSAAPAPKGRRSPSPGSSPSGRSVKPESPGVRRKRVSPVPFQSGRITPPRRAPSPDGFSPYSPEETSRRVNKVMRARLYLLQQIGPNSFLIGGDSPDNKYRVFIGPQNCSCGRGAFCIHLLFVMLRVFQLEPSDPMLWRKTLKNFEVESLFQKYHSRRSSRIKAPSRNTIQKFVSRMSNSHTLSSSSTSTSSSENSIKDEEEQMCPICLLGMLDEESLTVCEDGCRNKLHHHCMSIWAEECRRNREPLICPLCRSKWRSHDFYSHELSSPVESPASLRAVQQPSSPQQPVAGSQRRNQESSFNLTHFGTQQIPSAYKDLAEPWIQVFGMELVGCLFSRNWNVREMALRRLSHDVSGALLLANGESTGNSGGGSGGSLSAGAASGSSQPSISGDVVEACCSVLSIVCADPVYKVYVAALKTLRAMLVYTPCHSLAERIKLQRLLRPVVDTILVKCADANSRTSQLSISTVLELCKGQAGELAVGREILKAGSIGVGGVDYVLSCILGNQAESNNWQELLGRLCLIDRLLLEFPAEFYPHIVSTDVSQAEPVEIRYKKLLSLLTFALQSIDNSHSMVGKLSRRIYLSSARMVTAVPAVFSKLVTMLNASGSTHFTRMRRRLMAIADEVEIAEVIQLGVEAAAAGHQDSLQAVAPTSCLENSSLEHTVHREKTGKGLSATRLSASSEDISDRLAGVSVGLPSSTTTEQPKPAVQTKGRPHSQCLNSSPLSHAQLMFPAPSAPCSSAPSVPDISKHRPQAFVPCKIPSASPQTQRKFSLQFQRNCSEHRDSDQLSPVFTQSRPPPSSNIHRPKPSRPVPGSTSKLGDATKSSMTLDLGSASRCDDSFGGGGNSGNAVIPSDETVFTPVEDKCRLDVNTELNSSIEDLLEASMPSSDTTVTFKSEVAVLSPEKAENDDTYKDDVNHNQKCKEKMEAEEEEALAIAMAMSASQDALPIVPQLQVENGEDIIIIQQDTPETLPGHTKAKQPYREDAEWLKGQQIGLGAFSSCYQAQDVGTGTLMAVKQVTYVRNTSSEQEEVVEALREEIRMMGHLNHPNIIRMLGATCEKSNYNLFIEWMAGGSVAHLLSKYGAFKESVVINYTEQLLRGLSYLHENQIIHRDVKGANLLIDSTGQRLRIADFGAAARLASKGTGAGEFQGQLLGTIAFMAPEVLRGQQYGRSCDVWSVGCAIIEMACAKPPWNAEKHSNHLALIFKIASATTAPSIPSHLSPGLRDVAVRCLELQPQDRPPSRELLKHPVFRTTW
B2: p35: baculovirus protein with broad inhibitory activity to ICE/FLICE-like proteases (protein, UniProt P08160 1-299, looked up)
Early 35 kDa protein: MCVIFPVEIDVSQTIIRDCQVDKQTRELVYINKIMNTQLTKPVLMMFNISGPIRSVTRKNNNLRDRIKSKVDEQFDQLERDYSDQMDGFHDSIKYFKDEHYSVSCQNGSVLKSKFAKILKSHDYTDKKSIEAYEKYCLPKLVDERNDYYVAVCVLKPGFENGSNQVLSFEYNPIGNKVIVPFAHEINDTGLYEYDVVAYVDSVQFDGEQFEEFVQSLILPSSFKNSEKVLYYNEASKNKSMIYKALEFTTESSWGKSEKYNWKIFCNGFIYDKKSKVLYVKLHNVTSALNKNVILNTIK

Columns and labels:
[1] = test system: MEKK1; assay: Immunoblot of cleavage fragments of transfected HA-tagged MEKK1 in HEK293 cells; format: cell-based, Human
From the text: The full length cDNA encoding mouse MEKK1 was modified by addition of the HA-tag sequence ([…]) (SEQ ID NO: 12) at its NH2-terminus and inserted into the expression plasmid pCEP4 (Invitrogen), resulting in plasmid MEKK1.cp4. The MEKK1 sequences DTVD (amino acids 871-874) and DEVE (amino acids 857-860) in MEKK1.cp4 were substituted with alanines using a PCR strategy. The resulting plasmids were named DTVD_A.cp4 and DEVE_A.cp4. The cDNAs for CrmA (Pickup et al., 1986), p35 (Cartier et al., 1994), JNK1-APF (Dérijard et al., 1994) and JNK2-APF (Kallunki et al., 1994) were subcloned in pCEP4 in which the hygromycin resistance gene had been removed, resulting in plasmids CrmA.cp_, p35.cp_, JNK1_APF.cp and JNK2_APF.cp_. Plasmid pCDNA—3.cp4 is the result of the ligation of pCEP4 and pCDNA-3.
200-400 μg cell lysate protein was subjected to SDS-9% PAGE and transferred to nitrocellulose membranes. Blots were performed exactly as described (Widmann et al., 1995). To detect HA-tagged proteins, the mouse monoclonal antibody 12CA5 (Babco) was used as the primary antibody, followed by a rabbit anti-mouse antibody (Cappel). HRP-conjugated protein A at a 1/5000 dilution (Zymed) and ^125I-protein A at a 1/500 dilution (Dupont NEN) were then used for enhanced chemiluminescence (ECL) detection and for quantification using the phosphorimager. To detect MEKK1, 3 different ploclonal antisera were used as primary antibodies, followed by ECL detection using HRP-protein A (see above). These sera were generated by injecting rabbits with GST proteins fused with different portions of the MEKK1 protein.

[2] = test system: c-Jun kinase (JNK); assay: c-Jun kinase assay, transfected HEK293 cells; format: cell-based, Human
Description: (§1) Lysis buffer (70 mM β-glycerophosphate, 1 mM EGTA, 100 μM Na3VO4, 1 mM DTT, 2 mM MgCl2, 0.5% Triton-X100, 20 μg/ml aprotinin) was added to cells 15-24 hours after transfection. Cellular debris was removed by centrifugation at 8,000xg for 5 min. Protein concentration was normalized by Bradford assay using BSA as standard.
c-Jun kinase (JNK) activity was measured using a solid phase kinase assay in which glutathione S-transferase-c-Jun(1-79) (GST-Jun) bound to glutathione-Sepharose 4B beads was used to affinity-purify JNK from cell lysates as described (Gardner and Johnson, 1996; Hibi et al., 1993). Alternatively, JNKI or JNK2 were immunoprecipitated with isoform specific antibodies (Santa Cruz Biotechnology) and GST-Jun used as substrate in an in vitro kinase assay (Hibi et al., 1993). Quantitation of the phosphorylation of GST-Jun was performed with a Phosphorlmager.

[3] = test system: HEK293 cells; assay: MEKK1 staining and TdT-mediated dUTP incorporation (DNA fragmentation) in transfected cells; format: cell-based, Human
Description: Human embryonal kidney 293 cells (HEK293) stably expressing the EBNA-1 protein from Epstein-Barr virus (Invitrogen) were grown in Dulbecco's modified Eagle's medium (DMEM) supplemented with 100 U/ml penicillin/streptomycin and containing 10% bovine calf serum (BCS). The cells were transfected using lipofectamine (Gibco).
Cells were grown on glass coverslips and transfected using lipofectamine. Two days after transfection, the medium was removed and the cells were fixed in 2% paraformaldehyde, 3% sucrose in phosphate buffered saline (PBS) for 10 min at room temperature. Following three washes with PBS, the cells were permeabilized for 10 min with 2% Triton-X100 in PBS. After three PBS washes, the cells were blocked with filtered cultured medium for 15 min. The coverslips were then incubated 1 hour in TdT reaction mix (200 mM potassium cacodylate, 25 mM Tris.HCl, pH 6.6, 250 μg/ml BSA, 5 mM CoCl2, 0.25 U/μl TdT [Boehringer], 10 μM biotin-dUTP [Boehringer]) at 37° C. in a humidifed atmosphere. […] The coverslips were then washed 6× over a 30 min period with PBS and incubated 1 hour at room temperature with a 1/1000 dilution in filtered culture medium of a donkey anti-rabbit, Cy^3-conjugated, antibody (Jackson Immunological) mixed with 5 μg/ml streptavidin conjugated with FITC (Jackson Immunological). The coverslips were washed 6× with PBS and incubated overnight in PBS before being mounted in 20 mg/ml o-phenyldiamine-diHCl (Sigma) in 0.1 M Tris pH 8.5, 90% glycerol. Images were taken using a Leica DMRXA microscope and analyzed with the SlideBook v2.0 software (Intelligent Imaging Innovations, Denver). The subcellular localization of endogenous MEKK1 observed with the anti-COOH-terminal MEKK1 antibody was identical to that observed with a second antibody recognizing the NH2-terminal portion of the MEKK1 protein.

[4] = test system: MEKK1; assay: SEK1 K→M phosphorylation by MEKK1 immunoprecipitates; format: biochemical, mouse; details: HEK293 lysates; 95-012 antibody
Description: MEKK1 was immunoprecipitated from cell lysates (200-500 μg) with the antibodies raised against specific sequences of MEKK1 or the 12CA5 antibody that recognizes the HA-tag sequence.

[5] = test system: ERK2; assay: ERK2 immunoprecipitation kinase assay, transfected HEK293 cells; format: cell-based, Human; details: co-expression with MEKK1
Description: as §1
ERK2 was immunoprecipitated as described above for the JNK isoforms using the ERK2 (C-14) antibody (Santa Cruz Biotechnology). The beads were washed twice with 1 ml lysis buffer and twice with 1 ml lysis buffer without Triton-X100. […] The samples were washed thrice for 5 min each in 75 mM phosphoric acid and once for 2 min in acetone, air-dried, and their radioactivity determined in a β counter.

[6] = co-expression with MEKK1, 6 independent experiments

| Molecule | MEKK1 cleavage fragments generated ([1]; mutants transfected into HEK293 cells) | JNK activation ([2]; expression in HEK293 cells) | reduction in number of expressing cells showing DNA fragmentation ([3]; compared to wild-type MEKK1 or the DEVE→A mutant) | DNA fragmentation ([3]; expression in HEK293 cells) | SEK1 phosphorylation by COOH-terminal antibody immunoprecipitates [4] | effect on activation of ERK2 by MEKK1 [5] | amount of fragment A [1, 6] | diminution of the amount of fragment B [1, 6] | effect on activation of the JNKs by MEKK1 ([2]; co-expression with MEKK1) | expressing cells showing DNA breaks ([3]; co-expression with ΔMEKK1) | cells showing some DNA fragmentation ([3]; cotransfected with MEKK1) |
| --- | --- | --- | --- | --- | --- | --- | --- | --- | --- | --- | --- |
| B1 | only cleaved into fragments A and D | activated JNK to the same level as wild type MEKK1 | 65% | little DNA fragmentation | reduced | – | – | – | – | – | – |
| B2 | – | – | – | – | reached the same level of phosphorylation observed when the 12CA5 antibody was used | unaffected | unchanged | 90% | unaffected | 10% | about 5% |
